Target: actin (pyrene-labeled filaments)
Assay: pyrene-actin fluorescence quenching titration
Details: sites S3

Sequence of human cofilin-1 (from UniProt P23528) cofilin S3D (P23528 whole entry, looked up, stated change not applied): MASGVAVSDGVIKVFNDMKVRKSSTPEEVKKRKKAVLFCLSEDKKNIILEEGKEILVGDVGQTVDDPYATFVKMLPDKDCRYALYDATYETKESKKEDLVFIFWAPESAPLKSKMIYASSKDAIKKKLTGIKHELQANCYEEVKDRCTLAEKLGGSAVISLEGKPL
Sequence of human cofilin-1 (from UniProt P23528) cofilin S3D,G4F (P23528 whole entry, looked up, stated change not applied): as above
Sequence of human cofilin-1 (from UniProt P23528) cofilin S3D,G4L (P23528 whole entry, looked up, stated change not applied): as above

human cofilin-1 (from UniProt P23528) cofilin S3D
other: K0.5 (reference: cofilin WT): weaker; reference 0.61

human cofilin-1 (from UniProt P23528) cofilin S3D,G4F
other: K0.5 (reference: cofilin G4F): same; reference 1.0

human cofilin-1 (from UniProt P23528) cofilin S3D,G4L
other: K0.5 (reference: cofilin G4L): same; reference 0.59
